Experimental data published in publication PMC7865317, “Coupling of a Novel TIMP3 Peptide to Carboxypeptidase G2 for Pro-Drug Activation at the Tumour Site” (Molecules, 2021).

Biological target: T1, VEGFR2-immunoglobulin Fc fusion protein (UniProt P35968 20-764)
T1 construct: VEGFR2 (vascular endothelial growth factor receptor 2); Probably the extracellular domain of VEGFR2 fused to an IgG Fc, as sold by R&D Systems (surmise); also called VEGFR2-Fc; source: bought: R&D Systems
Test: BLI; BLItz system; VEGFR2-Fc (5 uL at 250 ug/mL) loaded on protein A-coated probes for 300 s; CPG2 or CPG2-p700 in the drop holder, five runs at 600 nM to 10 uM; PBS
Conditions: both partners purified

T1 sequence (P35968 20-764): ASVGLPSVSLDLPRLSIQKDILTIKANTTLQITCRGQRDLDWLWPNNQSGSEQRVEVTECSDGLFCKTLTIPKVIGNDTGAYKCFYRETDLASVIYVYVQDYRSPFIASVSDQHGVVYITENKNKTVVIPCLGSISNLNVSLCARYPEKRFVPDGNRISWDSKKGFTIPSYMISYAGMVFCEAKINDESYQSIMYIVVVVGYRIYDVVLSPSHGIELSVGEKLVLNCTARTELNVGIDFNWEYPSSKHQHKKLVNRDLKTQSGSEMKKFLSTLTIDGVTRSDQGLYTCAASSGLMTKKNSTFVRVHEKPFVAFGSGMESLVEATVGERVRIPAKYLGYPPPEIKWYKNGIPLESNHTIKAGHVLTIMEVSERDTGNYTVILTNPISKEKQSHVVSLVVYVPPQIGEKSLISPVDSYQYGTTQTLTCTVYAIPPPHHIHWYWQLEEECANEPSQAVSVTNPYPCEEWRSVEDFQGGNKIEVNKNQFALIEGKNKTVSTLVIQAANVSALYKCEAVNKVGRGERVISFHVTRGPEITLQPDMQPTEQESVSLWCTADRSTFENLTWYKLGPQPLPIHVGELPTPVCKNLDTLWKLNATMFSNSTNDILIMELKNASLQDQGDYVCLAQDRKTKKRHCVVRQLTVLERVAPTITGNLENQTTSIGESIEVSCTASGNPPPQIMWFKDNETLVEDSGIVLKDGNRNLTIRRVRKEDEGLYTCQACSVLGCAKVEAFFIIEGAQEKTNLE

B1: recombinant codon-optimised carboxypeptidase G2 (CPG2-His) (enzyme, Pseudomonas aeruginosa strain RS-16, UniProt P06621 23-415, looked up)
chain: ALAQKRDNVLFQAATDEQPAVIKTLEKLVNIETGTGDAEGIAAAGNFLEAELKNLGFTVTRSKSAGLVVGDNIVGKIKGRGGKNLLLMSHMDTVYLKGILAKAPFRVEGDKAYGPGIADDKGGNAVILHTLKLLKEYGVRDYGTITVLFNTDEEKGSFGSRDLIQEEAKLADYVLSFEPTSAGDEKLSLGTSGIAYVQVNITGKASHAGAAPELGVNALVEASDLVLRTMNIDDKAKNLRFNWTIAKAGNVSNIIPASATLNADVRYARNEDFDAAMKTLEERAQQKKLPEADVKVIVTRGRPAFNAGEGGKKLVDKAVAYYKEAGGTLGVEERTGGGTDAAYAALSGKPVIESLGLPGFGYHSDKAEYVDISAIPRRLYMAARLIMDLGAGK
notes: carboxypeptidase G2 (CPG2, glucarpidase), gene codon optimised for E. coli (Goda et al. 2009), approximately 1200 bp; Expected size 45 kDa; Cloned NdeI/NotI into pET28a, which may add an N-terminal His tag from the vector (surmise); construct in Supplementary Data S1; also called CPG2 alone; CPG2-only; source: E. coli BL21 (DE3), purified by Ni2+-NTA chromatography from pooled 2 M urea washes of …
Question: For B1, which Kd is on record?
Answer: 15 µM
